In patent publication US20040167074A1, “Therapeutic applications of mFLINT polypeptides” (priority 1998, published 2004):

Tests used:
osteoclasts [1] = assay: Porcine osteoclast differentiation assay (TRAP staining); type: cell-based, pig; conditions: mean and standard error of 6 wells
Excerpt: Neonatal pigs (aged 1-5 days) were euthanized with CO2, the appendages were rinsed with 70% ethanol, the soft tissues were removed, and the humeri, radii, ulnae, femora, tibiae and fibulae were excised. The long bones were placed in ice-cold calcium and magnesium-free Hank's balanced salt solution (CMF-HBSS, Gibco BRL) and cleaned of all soft tissues. The bones were split longitudinally and the endosteal surfaces were scraped to remove both the marrow and trabecular bone. The suspension of trabecular bone particles and marrow cells was agitated by vigorous shaking and passed through a […] and then […] sieve. Cells were centrifuged at 500×g for 10 minutes at 4° C., the pellet was resuspended in CMF-HBSS, and then separated on a Ficoll-Paque gradient (Pharmacia, Piscataway, N.J.). The mononuclear cell fraction from the gradient was washed twice in CMF-HBSS and passed through a […] sieve. The cells were suspended in growth medium consisting of a-MEM (pH 7.2, which was modified to contain 8.3 mM NaHCO3 (Gibco BRL, Grand Island, N.Y.)), 10% heat-inactivated fetal bovine serum (FBS, Hyclone, Logan, Utah) and 2% antibiotic/antimycotic solution (Gibco BRL, Grand Island, N.Y.) and seeded onto tissue culture dishes at a density of 1×10^6 cells/cm^2. A typical marrow cell yield was between 1-2×10^9 cells/animal, which varied with the size of the animal. The cells were incubated at 37° C. in a humid incubator with 5% CO2. […] Following 5 days of culture, the cells were fixed with formalin (3.7% for 10 min) and then stained for tartrate-resistant acid phosphatase (TRAP) as in Example 6. The number of osteoclasts (TRAP-positive cells containing 3 or more nuclei) was quantitated.

FasL = target: T1, FasL (Homo sapiens, UniProt P48023); assay: Dot blot binding of mFLINT to TNF ligands; conditions: chemiluminescence detection
T1 construct: made in house
T1 sequence (P48023 1-281): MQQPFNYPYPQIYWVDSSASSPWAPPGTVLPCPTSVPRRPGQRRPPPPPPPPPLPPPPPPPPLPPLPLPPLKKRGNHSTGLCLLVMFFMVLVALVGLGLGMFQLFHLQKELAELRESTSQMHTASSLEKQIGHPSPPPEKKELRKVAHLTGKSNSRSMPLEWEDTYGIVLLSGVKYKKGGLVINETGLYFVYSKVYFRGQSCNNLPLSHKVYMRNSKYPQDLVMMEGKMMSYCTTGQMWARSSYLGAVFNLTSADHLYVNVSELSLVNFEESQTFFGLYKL
Protocol: (§1) Dot blot experiment was performed to scan known TNF ligands that are commercially available TRAIL and FasL for interaction with mFLINT.
(§2) TRAIL (RnD Systems) and FasL (Kamiya Biomedical Company) were spotted on a nitrocellulose paper and incubated with purified mFLINT-Flag. mFLINT was washed away and binding mFLINT was detected using anti Flag antibody. Both OPG2Fc and mFLINT-Flag were overexpressed and purified according the examples above. […] The nitrocellulose paper was subsequently mixed with the cell lysate containing FasL-Myc, and further incubated on a rotator for 1 hour at room temperature. Secondary and tertiary incubations were performed with anti-myc antibody and anti-mouse IgG-HRP for 1 hour and 30 minutes respectively.

TRAIL = target: T2, TRAIL (Homo sapiens, UniProt P50591); assay: Dot blot binding of mFLINT to TNF ligands
T2 construct: purchased RnD Systems
T2 sequence (P50591 114-281 limits assumed, species assumed): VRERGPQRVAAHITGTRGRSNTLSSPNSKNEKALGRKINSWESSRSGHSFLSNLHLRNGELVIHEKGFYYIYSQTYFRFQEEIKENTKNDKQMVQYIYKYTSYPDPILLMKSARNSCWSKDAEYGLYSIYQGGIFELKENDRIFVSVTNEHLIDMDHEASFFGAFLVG
Protocol: as §1, §2

hFasLigand (Flag-tagged) = target: T3, hFasLigand (Flag-tagged) (Homo sapiens, UniProt P48023); assay: ELISA: FasLigand binding to adsorbed FLINT and Fas; conditions: 100 ng receptor adsorbed
T3 sequence (P48023 103-281 limits assumed): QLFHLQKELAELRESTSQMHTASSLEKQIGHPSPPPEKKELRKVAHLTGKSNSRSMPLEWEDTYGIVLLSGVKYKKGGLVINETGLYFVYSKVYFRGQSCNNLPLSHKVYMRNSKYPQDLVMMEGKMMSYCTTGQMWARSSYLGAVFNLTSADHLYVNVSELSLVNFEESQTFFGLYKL
Protocol: FLINT and Fas (100 ng of each) were adsorbed on to an ELISA plate. hFasLigand (Flag-tagged) was added at different concentrations to a maximum concentration of 300 ng down to 0.1 ng on TBST plus a 0.1% solution containing 1 microgram/ml of M2 Abs. After washing of the plate, anti-mouse-Abs-HRP (1:3000 dilution, Bio-Rad) was added to the wells. After washings, visualization enzymatic reaction using ABTS as a substrate was performed.

osteoclasts [2] = assay: Murine osteoclast differentiation assay (TRAP staining); type: cell-based, mouse; conditions: mean and standard error of 6 wells
Protocol: Male Balb/C mice (4-8 weeks old) were euthanized with CO2, the femurs removed, and the marrow flushed out of the femurs with growth medium. Bone marrow cells were pelleted by centrifugation at 500×g for 6 min. and resuspended in the growth medium (RPMI 1640 plus 5% heat inactivated fetal bovine-serum and 1% antibiotic-antimycotic solution). The marrow population (5×10^4 cells/cm^2) was seeded in tissue culture dishes in which BALC cells (a stable cell line derived from neonatal mouse calvariae, 1.5×10^4 cells/cm^2) had been plated 2 h prior to addition of bone marrow. The cells were cultured for 7 days in a humidified incubator at 37° C. with 5% CO2 with medium changes on days 3 and 5. Cultures were treated with or without 10^−8M 1,25-(OH)2D3 on days 0, 3, and 5. In addition, -the cells were treated with or without secreted mFLINT protein purified from the conditioned medium of cells transfected with mFLINT gene (FIG. 1). Following 7 days of culture, the cells in 24-well cluster dishes were fixed with formalin (3.7% for 10 min) and then stained for tartrate-resistant acid phosphatase (TRAP) using a modification of the method described by Graves, L and Jilka R L, J Cell Physiology 145:102 1990. The number of osteoclasts (TRAP-positive cells containing 3 or more nuclei) was quantitated.

B1: mFLINT: mature FLINT without leader peptide (FIG. 3), soluble TNFR superfamily member, made according to Examples 8 and 9 (protein)
chain: VAETPTYPWRDAETGERLVCAQCPPGTFVQRPCRRDSPTTCGPCPPRHYTQFWNYLERCRYCNVLCGEREEEARACHATHNRACRCRTGFFAHAGFCLEHASCPPGAGVIAPGTPSQNTQCQPCPPGTFSASSSSSEQCQPHRNCTALGLALNVPGSSSHDTLCTSCTGFPLSTRVPGAEECERAVIDFVAFQDISIKRLQRLLQALEAPEGWGPTPRAGRAALQLKLRRRLTELLGAQDGALLVRLLQALRVARMPGLERSVRERFLPVH
modifications: glycosylated
B1 showed an Osteoclasts/well (osteoclasts [1]; FLINT 0.01 ng/ml, control 214.83) of 68.83 ± 6.28 Osteoclasts/well, an Osteoclasts/well (osteoclasts [1]; FLINT 0.10 ng/ml) of 176.17 ± 23.01 Osteoclasts/well and an Osteoclasts/well (osteoclasts [1]; FLINT 1.00 ng/ml) of 228.50 ± 17.26 Osteoclasts/well. For the same molecule, the Osteoclasts/well (osteoclasts [1]; FLINT 10.00 ng/ml) was 228.50 ± 29.29 Osteoclasts/well, the Osteoclasts/well (osteoclasts [1]; FLINT 100.00 ng/ml) was 382.33 ± 26.59 Osteoclasts/well and the “binding in dot blot” value (FasL) was “bound to FasL specifically”. The “binding in dot blot” value (TRAIL) was “No appreciable binding”, the “OD, 405 nM” value (hFasLigand (Flag-tagged); FasL 0.1 ng) was 0 and the “OD, 405 nM” value (hFasLigand (Flag-tagged); FasL 0.5 ng) was 0. For the same molecule, the “OD, 405 nM” value (hFasLigand (Flag-tagged); FasL 1.0 ng) was “.02”, the “OD, 405 nM” value (hFasLigand (Flag-tagged); FasL 5.0 ng) was “.04” and the “OD, 405 nM” value (hFasLigand (Flag-tagged); FasL 10 ng) was “.12”. For the same molecule, the “OD, 405 nM” value (hFasLigand (Flag-tagged); FasL 50 ng) was “.28”, the “OD, 405 nM” value (hFasLigand (Flag-tagged); FasL 100 ng) was “.78” and the Osteoclasts/well (osteoclasts [2]; FLINT 0.01 ng/ml, control 145.50) was 40.50 ± 2.39 Osteoclasts/well. The Osteoclasts/well (osteoclasts [2]; FLINT 0.10 ng/ml) was 65.50 ± 3.33 Osteoclasts/well, the Osteoclasts/well (osteoclasts [2]; FLINT 1.00 ng/ml) was 97.50 ± 3.10 Osteoclasts/well and the Osteoclasts/well (osteoclasts [2]; FLINT 10.00 ng/ml) was 170.17 ± 8.26 Osteoclasts/well. The Osteoclasts/well (osteoclasts [2]; FLINT 100.00 ng/ml) was 335.00 ± 8.90 Osteoclasts/well.
